Measurements reported in US20040028672.

System: LL-37

Pseudomonas aeruginosa elastase
degradation of LL-37 (SDS-PAGE) and loss of bactericidal activity against E. faecalis: LL-37 is degraded and inactivated by P. aeruginosa elastase
